Assay results: publication PMC9307952, “Lipoate protein ligase B primarily recognizes the C8-phosphopantetheine arm of its donor substrate and weakly binds the acyl carrier protein” (The Journal of Biological Chemistry, 2022)

substrate: CCCCCCCC(=O)SCCNC(=O)CCNC(=O)[C@H](O)C(C)(C)COP(=O)(O)OP(=O)(O)OC[C@H]1O[C@@H](n2cnc3c(N)ncnc32)[C@H](O)[C@@H]1OP(=O)(O)O; assay: purified protein; settings: 5 μM LipB, 25 μM E. coli GcvH as acceptor, 0-160 μM C8-CoA, 50 mM Tris-HCl, 200 mM NaCl, pH 8.0, 30 °C

| Protein | Km [µM] | Vmax [µmol/min] | kcat [s⁻¹] |
| --- | --- | --- | --- |
| E. coli LipB (EcLipB) (Escherichia coli K-12; G72A/G73A) (protein) MYQDKILVRQLGLQPYEPISQAMHEFTDTRDDSTLDEIWLVEHYPVFTQGQAGKAEHILMPGDIPVIQSDRAAQVTYHGPGQQVMYVLLNLKRRKLGVRELVTLLEQTVVNTLAELGIEAHPRADAPGVYVGEKKICSLGLRIRRGCSFHGLALNVNMDLSPFLRINPCGYAGMEMAKISQWKPEATTNNIAPRLLENILALLNNPDFEYITA | 6.71 ± 0.98 | 0.32 | 0.001 |
| E. coli LipB (EcLipB) (Escherichia coli K-12; R71A) (protein) MYQDKILVRQLGLQPYEPISQAMHEFTDTRDDSTLDEIWLVEHYPVFTQGQAGKAEHILMPGDIPVIQSDAGGQVTYHGPGQQVMYVLLNLKRRKLGVRELVTLLEQTVVNTLAELGIEAHPRADAPGVYVGEKKICSLGLRIRRGCSFHGLALNVNMDLSPFLRINPCGYAGMEMAKISQWKPEATTNNIAPRLLENILALLNNPDFEYITA | 34.39 ± 8.8 | 0.26 | 0.000833 |
| E. coli LipB (EcLipB) (Escherichia coli K-12; K135A) (protein) MYQDKILVRQLGLQPYEPISQAMHEFTDTRDDSTLDEIWLVEHYPVFTQGQAGKAEHILMPGDIPVIQSDRGGQVTYHGPGQQVMYVLLNLKRRKLGVRELVTLLEQTVVNTLAELGIEAHPRADAPGVYVGEKAICSLGLRIRRGCSFHGLALNVNMDLSPFLRINPCGYAGMEMAKISQWKPEATTNNIAPRLLENILALLNNPDFEYITA | 42.37 ± 4.58 | 0.2 | 0.000667 |
